In patent US5981720A, “Human salivary proteins and fragments thereof having alpha-glucosidase inhibitory activity” (priority 1997, dated 1999):
Entries after “also recorded” stand apart in the source; their conditions may differ. Like-named read-outs stand apart in the source and are kept apart here.

B1: CON-1: basic salivary proline-rich glycoprotein which binds concanavalin A, 124 amino acids, large form (protein)
chain: SPPGKPQGPPPQGGNQPQGPPPPPGKPQGPPPQGGNKPQGPPPPGKPQGPPPQGDNKSQSARSPPGKPQGPPPQGGNQPQGPPPPPGKPQGPPPQGGNKSQGPPPPGKPQGPPPQGGSKSRSSR
modifications: glycoprotein; glycosylation occurs at one N-linked site (acetylglucosamine on asparagine of glycine-glycine-asparagine-lysine)
B2: alpha-amylase: salivary protein tested for effect on alpha-glucosidase (protein, UniProt P0DUB6 16-511, looked up)
Alpha-amylase 1A: QYSSNTQQGRTSIVHLFEWRWVDIALECERYLAPKGFGGVQVSPPNENVAIHNPFRPWWERYQPVSYKLCTRSGNEDEFRNMVTRCNNVGVRIYVDAVINHMCGNAVSAGTSSTCGSYFNPGSRDFPAVPYSGWDFNDGKCKTGSGDIENYNDATQVRDCRLSGLLDLALGKDYVRSKIAEYMNHLIDIGVAGFRIDASKHMWPGDIKAILDKLHNLNSNWFPEGSKPFIYQEVIDLGGEPIKSSDYFGNGRVTEFKYGAKLGTVIRKWNGEKMSYLKNWGEGWGFMPSDRALVFVDNHDNQRGHGAGGASILTFWDARLYKMAVGFMLAHPYGFTRVMSSYRWPRYFENGKDVNDWVGPPNDNGVTKEVTINPDTTCGNDWVCEHRWRQIRNMVNFRNVVDGQPFTNWYDNGSNQVAFGRGNRGFIVFNNDDWTFSLTLQTGLPAGTYCDVISGDKINGNCTGIKIYVSDDGKAHFSISNSAEDPFIAIHAESKL
B3: CON-2: small form analog of CON-1, salivary glycoprotein of 82 amino acids (protein)
chain: SPPGKPQGPPPQGGNQPQGPPPPPGKPQGPPPQGGNKPQGPPPPGKPQGPPPQGGNKSQGPPPPGKPQGPPPQGGSKSRSSR

Assays:
alpha-amylase = assay: Enzyme assay of alpha-amylase activity in the presence of CON-1; format: biochemical; conditions: same concentration as for alpha-glucosidase
Protocol: (§1) The enzyme reactions of alpha- and beta-amylases contained 2 mg of phytoglycogen as substrate in 0.05 M sodium acetate buffer, pH 5.4; and were incubated at 37° C. for 60 minutes. The liberation of reducing sugar from phytoglycogen was measured by the reduction of 3,5-nitrosalicyclic acid as described by Bernfeld, Methods Enzymol. 1:149-158 (1955).

HIV-1 = conditions: CEMx174 cells
Protocol: To test whether the alpha-glucosidase inhibitor activity of CON-1 could also intervene in HIV adsorption to target cells, thereby reducing infectivity and production of viral proteins, the following experiment was carried out: CEMx174 cells, as described by Hoxie, et al., J. Virol., 62: 2557 (1988), were infected at a concentration of 500,000 cells per ml for 2 hours at 37 degrees Centigrade with cell-free HIV-1, isolated as described in Alizon, et al., Nature, 312: 757 (1984), by adding virus at a concentration of 300 ng of HIV p24 protein per ml. Components of complete medium: RPMI 1640 with 10% fetal bovin serum, 2 mM L-glutamine, penicillin at 100 units/ml, and streptomycin at 100 ug/ml) with phytohemagglutin (PHA, 1 ug/ml; Sigma). After the 2 hour incubation, the virus inoculum was washed off and the cells were resuspended in complete culture medium containing various amounts of CON-1 protein. The cells were incubated in 96-well microtiter plates (5×10^4 cells in 200 ul per well), and cell-free supernatants were collected 72 hours after infection.
The amount of HIV p24 in the cell-free supernatant was determined with a commercially available ELISA kit (Coulter) according to the manufacture's instructions. The HCEM cell line described in Pauza, et al. J. Virol., 63:3700 (1989) was used to assess the effect of CON-1 on HIV production from chronically infected cells. HCEM cells were pretreated with CON-1 at 10 ug/ml for 4 hours, washed twice with phosphate-buffered saline and then incubated at 10^6 cells per ml in complete medium in the presence of CON-1 at 10 ug/ml, respectively. After 48 hours, cell-free supernatants were collected to determine HIV p24 levels by ELISA.

[1] = format: physicochemical
Excerpt: The crude preparation (either cell lysate, whole saliva, or parotid exudate) is collected at subzero temperatures, preferably into a dry-ice chilled container. The preparation is then heated to a temperature between 75 and 100 degrees Centigrade, for a period sufficient to cause denaturation of proteases. At lower temperatures, the time of exposure to heat may be increased up to one hour. Best results are obtained by heating an aliquot of the crude preparation in boiling water from 2 to about 10 minutes. Precipitated protein is then removed by centrifugation followed by an alcohol precipitation. The alcohol may be isopropyl, methyl, or ethyl, ethyl being preferred because of its nontoxic or USP properties. Alcohol precipitation is generally carried out overnight at 4 to 15 degrees.
In conventional purification strategies, the protein was either degraded too rapidly to remove contaminating proteases, or the protein is inherently unstable in the presence of alterative materials. Among those techniques attempted in purifying CON-1 and CON-2 are the following: Sephadex gel filtration, DEAE cation and anion exchange chromatography, preparative gradient SDS-gel electrophoresis, solvent precipitation in an initial step (methanol, propanol, isopropanol, butanol acetone, and phenol), concanavalin A affinity column chromatography, and blue dye gel affinity column chromatography. […]

yeast alpha-glucosidase = yeast alpha-glucosidase (Saccharomyces cerevisiae, UniProt P53341); format: biochemical; conditions: for inhibitory effect on alpha-glucosidase activity (in words): 0.02 units of yeast alpha-glucosidase; for Specific Inhibitory Activity: decrease of 1 umole of glucose production from maltose per microgram of salivary protein per hour, stages of CON-1 purification; for change of inhibitory activity after removal of acetylglucosamine (in words): incubation with N-acetylglucosaminidase
Sequence of yeast alpha-glucosidase (P53341 whole entry): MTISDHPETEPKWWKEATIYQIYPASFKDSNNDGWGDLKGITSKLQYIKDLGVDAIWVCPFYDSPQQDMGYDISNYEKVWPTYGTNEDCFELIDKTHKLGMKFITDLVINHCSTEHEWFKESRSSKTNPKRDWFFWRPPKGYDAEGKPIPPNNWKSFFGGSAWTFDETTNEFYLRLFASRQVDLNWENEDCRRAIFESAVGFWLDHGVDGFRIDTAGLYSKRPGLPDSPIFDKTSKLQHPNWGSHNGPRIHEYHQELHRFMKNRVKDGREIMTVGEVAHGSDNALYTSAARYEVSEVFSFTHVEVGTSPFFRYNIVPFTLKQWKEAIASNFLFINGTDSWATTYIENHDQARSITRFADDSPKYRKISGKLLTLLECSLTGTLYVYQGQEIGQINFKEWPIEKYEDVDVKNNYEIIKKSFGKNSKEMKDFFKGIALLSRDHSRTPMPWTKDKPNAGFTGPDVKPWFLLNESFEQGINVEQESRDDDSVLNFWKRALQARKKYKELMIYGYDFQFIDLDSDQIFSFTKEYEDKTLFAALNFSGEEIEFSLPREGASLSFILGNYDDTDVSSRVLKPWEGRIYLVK
Protocol: The enzyme of alpha-glucosidase activity is according to the procedure as described by Sigma Chemical Company, St. Louis, Mo. Routinely, the enzyme reaction mixture contains 10 mM maltose and 50 ul of purified alpha-glucosidase or 0.02 units of yeast alpha-glucosidase in a final volume of 60 ul of 25 mM sodium acetate buffer, pH 5.6. The reaction mixture is incubated at 37° C. for 60 minutes, and the production of glucose is determined by the glucose oxidase reagent (Worthington Statzyme Glucose 500) in accordance with recommendation of Worthington Biochemical Corporation.

glucoamylase = conditions: same concentration as for alpha-glucosidase
invertase = assay: Enzyme assay of invertase in the presence of CON-1; format: biochemical; conditions: same concentration as for alpha-glucosidase
Protocol: The enzyme reaction was incubated with 5 mM sucrose as substrate in 50 mM acetate buffer pH 5.0 at 37° C. for 60 minutes. The production of glucose was determined as described in "Enzyme Assay of Alpha-Glucosidase Activity".

debranching enzyme = assay: Enzyme assay of debranching enzyme in the presence of CON-1; format: biochemical; conditions: same concentration as for alpha-glucosidase
Protocol: Debranching enzyme activity was determined according to the method of Lee, et al. Arch. Biochem. Biophys., 143:315-374 (1971). The reaction mixture contains 2 mg of pullulan, 100 mM sodium citrate buffer (pH 7.0), and incubated at 37° C. for 60 minutes. The reducing sugar produced from phytoglycogen was determined according to the method of Bernfeld, Methods Enzymol. 1:149-158 (1955).

beta-amylase = assay: Enzyme assay of beta-amylase activity in the presence of CON-1; format: biochemical; conditions: same concentration as for alpha-glucosidase
Protocol: as §1

CEM×179 cells = format: cell-based
Protocol: T cell proliferation assay: CEM×179 cells (2×10^5/well in 200 ul of complete medium) were cultured during 6 days at 37° C. in flat-bottomed microtiter wells, and T cell proliferation was evaluated following a 6 hr pulse of (3H)-thymidine (0.5 uCi/well) (Amersham, Bucks, England). Cultures were harvested (Skatron Instruments, Lier, Norway) and the radioactivity was measured using a beta-counter (Packard Gamma 5500).

[2] = supernatant 72 hours after infection (FIG. 9)

Molecule | inhibitory effect on alpha-amylase (in words) (alpha-amylase) | concentration at which significant inhibition of p24 production first occurs (HIV-1; [2]) | concentrations showing marked inhibition of p24 production (HIV-1; [2]) | effect on HIV p24 production (in words) (HIV-1; up to 20 ug/ml) | stability to denaturing conditions (in words) [1] | inhibitory effect on alpha-glucosidase activity (in words) (yeast alpha-glucosidase) | inhibitory activity lost after deglycosylation (yeast alpha-glucosidase; CON-1 treated with PNGase versus native glycosylated CON-1 (FIG. 8)) | Specific Inhibitory Activity (yeast alpha-glucosidase) | Specific Inhibitory Activity (yeast alpha-glucosidase; listed as SDS Gel Electrophoresis Slice) | change of inhibitory activity after removal of acetylglucosamine (in words) (yeast alpha-glucosidase) | inhibitory effect on glucoamylase (in words) (glucoamylase) | inhibitory effect on invertase (in words) (invertase) | inhibitory effect on debranching enzyme (in words) (debranching enzyme) | inhibitory effect on beta-amylase (in words) (beta-amylase) | amount of protein showing no toxic effect on the cell line (CEM×179 cells)
B1 | None of the other enzymes is significantly affected; also recorded: essentially no inhibitory effect | 2.5 µg/mL | above 1.25 ug/ml | profound reductions in signal markers of viral replication | extreme stability to denaturing conditions | inhibition of essentially all enzyme activity; also recorded: completely inhibited the enzyme; also recorded: nearly complete | about 50% | about 2810 | 2810.0 | marked reduction in inhibitory activity | essentially no inhibitory effect | None of the other enzymes is significantly affected; also recorded: essentially no inhibitory effect | None of the other enzymes is significantly affected; also recorded: essentially no inhibitory effect | None of the other enzymes is significantly affected; also recorded: essentially no inhibitory effect | up to 50 ug/assay
B2 | – | – | – | – | – | significantly enhance enzyme activity | – | – | – | – | – | – | – | – | –
B3 | essentially no inhibitory effect | – | – | – | extreme stability to denaturing conditions | nearly complete | – | – | – | marked reduction in inhibitory activity | essentially no inhibitory effect | essentially no inhibitory effect | essentially no inhibitory effect | essentially no inhibitory effect | –
